# B1: VEGFA promoter 27-bp SerRS site (dsDNA)
# DNA 1: GGCGGGGCGGAGCCATGCGCCCCCCCC
# DNA 2: GGGGGGGGCGCATGGCTCCGCCCCGCC
# Target: SerRS (seryl-tRNA synthetase) wild type (Homo sapiens, UniProt P49591 SEQ:1-514)
# Assay: EMSA; 20 mM Tris pH 8.0, 60 mM KCl, 5 mM MgCl2, poly(dG-dC), room temperature
# Conditions: tags: C-terminal His6; label: 5'-32P
# Description: The 27 bp DNA oligonucleotides corresponding to SerRS binding site on the VEGFA promoter (5′ GGCGGGGCGGAGCCATGCGCCCCCCCC 3′ (SEQ ID NO: 36)) were synthesized, annealed, and [³²P]-labeled at the 5′ end by T4 DNA kinase (New England Biolabs, Ipswich, Mass., USA) before desalting using a sephadex G-25 spin column (GE Healthcare, Pittsburgh, Pa., USA). The labeled oligonucleotides (0.08 pmol) were incubated with recombinant SerRS at indicated concentrations in binding buffer (20 mM Tris-HCl, pH 8.0, 60 mM KCl, 5 mM MgCl₂, 0.1 mg ml⁻¹ BSA, 10 ng μl⁻¹ poly (dG-dC), 1 mM DTT) for 30 min at room temperature. The samples were loaded to 5% native polyacrylamide gel (17.5 cm in length) and underwent electrophoresis at 250 V in running buffer (25 mM Tris, pH 8.3, 190 mM glycine). Afterwards, the gel was dried and examined by autoradiography.
# The effect of hypoxia on the interaction of SerRS with VEGFA promoter was also explored. As detected by electrophoresis mobility shift assay (EMSA), the direct binding between SerRS and a ³²P-labeled 27-bp DNA fragment previously identified as the SerRS binding site from the VEGFA promoter in Shi et al. 2014 was attenuated by the phosphor-mimicking mutant SerRS^{S101D/S241D} (FIG. 2E).
# SerRS (seryl-tRNA synthetase) wild type, sequence (P49591 whole entry): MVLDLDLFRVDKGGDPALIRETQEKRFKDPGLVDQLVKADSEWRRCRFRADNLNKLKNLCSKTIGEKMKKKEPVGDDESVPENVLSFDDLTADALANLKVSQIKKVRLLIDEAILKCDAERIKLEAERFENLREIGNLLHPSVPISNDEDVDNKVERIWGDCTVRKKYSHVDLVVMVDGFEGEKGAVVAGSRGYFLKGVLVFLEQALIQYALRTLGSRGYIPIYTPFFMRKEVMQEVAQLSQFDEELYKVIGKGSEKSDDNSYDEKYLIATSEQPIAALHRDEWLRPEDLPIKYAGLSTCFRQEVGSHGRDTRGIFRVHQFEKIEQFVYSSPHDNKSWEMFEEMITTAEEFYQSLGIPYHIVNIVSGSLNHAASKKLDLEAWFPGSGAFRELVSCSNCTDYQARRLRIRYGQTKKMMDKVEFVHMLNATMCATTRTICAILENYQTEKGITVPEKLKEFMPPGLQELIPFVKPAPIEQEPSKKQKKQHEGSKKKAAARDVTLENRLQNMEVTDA
binder,measurement,value
B1,binding result,binds
